# Data reported in the supplement of paper PMC7125110.
# ± gives the standard error. This sample holds only a part of the variants without activity.
# B1: glmS ribozyme (parent)
# chain: AUAAAAGCGCCAGAACUACAGAAAUGUAGUUGACGAGGAGGAGGUUUAUCGAAUUUUCGGCGGAUGCCUCCAAA
# What was measured:
# Conditions in all cases: with glucosamine-6-phosphate
# glucosamine-6-phosphate [1] = variants of: B1; test: self-cleavage kobs at 40 uM GlcN6P; higher = faster cleavage; RNA array
# Summary of the method: (§1)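 Glucosamine-6-phosphate (40 μM to 10 mM) in HEPES/KCl/Mg(OAc)2 buffer was flowed over sequenced MiSeq chips, and tiles were imaged over ~14 h. Barcoded ribozyme variants there had been transcribed in situ by E. coli RNA polymerase and were tracked through a hybridised Cy3 probe at 37 °C. One- or two-exponential decay fits to per-tile medians, normalised to baseline and to non-cleaving reference variants, gave kobs. kcat and KM came from weighted Michaelis–Menten fits across concentrations.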
# glucosamine-6-phosphate [2] = variants of: B1; test: self-cleavage kobs at 2500 uM GlcN6P; higher = faster cleavage; RNA array
# Summary of the method: as §1
# glucosamine-6-phosphate [3] = variants of: B1; test: self-cleavage kobs at 160 uM GlcN6P; higher = faster cleavage; RNA array
# Summary of the method: as §1
# glucosamine-6-phosphate [4] = variants of: B1; test: self-cleavage kobs at 640 uM GlcN6P; higher = faster cleavage; RNA array
# Summary of the method: as §1
# glucosamine-6-phosphate [5] = variants of: B1; test: self-cleavage kobs at 10000 uM GlcN6P; higher = faster cleavage; RNA array
# Summary of the method: as §1
Variant,self-cleavage kobs at 40 uM GlcN6P (glucosamine-6-phosphate [1]) [s⁻¹],self-cleavage kobs at 2500 uM GlcN6P (glucosamine-6-phosphate [2]) [s⁻¹],self-cleavage kobs at 160 uM GlcN6P (glucosamine-6-phosphate [3]) [s⁻¹],self-cleavage kobs at 640 uM GlcN6P (glucosamine-6-phosphate [4]) [s⁻¹],self-cleavage kobs at 10000 uM GlcN6P (glucosamine-6-phosphate [5]) [s⁻¹]
C16G G40U C58G,< 1e-05,< 1e-05,,,
C16G C70U,0.000111 ± 1.4e-05,0.000561 ± 9e-05,0.000359 ± 6.2e-05,0.000455 ± 8e-05,0.00521 ± 0.001
A15C U30G A39U,0.00162 ± 0.00029,,,,0.0346 ± 0.013
C16A A36G,< 1e-05,,< 1e-05,< 1e-05,< 1e-05
A14U U30C C61U C68A,< 1e-05,,,,
A15G G66A,0.000603 ± 8.4e-05,0.00542 ± 0.0014,0.00153 ± 0.00044,0.00506 ± 0.0011,0.0412 ± 0.011
A14U G51A,< 1e-05,,,,< 1e-05
A15G A52G G63U,< 1e-05,,,,< 1e-05
A15C G41A C70U,0.000261 ± 6.2e-05,,,,0.0111 ± 0.0023
A15C C50G A53G G62A C70G,0.000105 ± 3e-05,0.000125 ± 4.1e-05,,8.17e-05 ± 2.4e-05,8.78e-05 ± 1.9e-05
A14U U55G C61G,< 1e-05,,,,< 1e-05
A15C U30A G41C U45A C58U,< 1e-05,,,,
A15U C34G G66U C71U,< 1e-05,,,,< 1e-05
A15C U46A C58U,< 1e-05,,,,
A14U G43A U49A C58U,< 1e-05,,,,< 1e-05
A15G G35C C68A,< 1e-05,,,,
A15G C16G A33G A52G G60A,< 1e-05,,< 1e-05,,< 1e-05
C16A G51U A64C,< 1e-05,< 1e-05,,,< 1e-05
A14U G41U G44U,< 1e-05,,< 1e-05,< 1e-05,< 1e-05
A14U U30G C34U G40A A52G C68G,< 1e-05,,,,< 1e-05
A14U G35C A42C,< 1e-05,,< 1e-05,,
A14U G40A G51U,< 1e-05,,,,
A15G C71G,0.000107 ± 1.2e-05,0.00214 ± 0.00045,0.000256 ± 4.1e-05,0.00066 ± 8.8e-05,
A15G C71A,0.000251 ± 5.9e-05,0.006 ± 0.0015,0.00102 ± 0.00025,0.00108 ± 0.00025,0.005 ± 0.0016
A15C G35U A36G U65C C68A,< 1e-05,,,,< 1e-05
